# B1: 830 A (antibody, V domains shown)
# VH: QVQLQQWGPGLLKPSETLSLTCAVYGGSFGRYYWSWIRQSSGEGLEWLGQIDHTGSTTYNPSLKGRVTISIDSSTNQFSLKVTSVIAADTAVYYCARAPSGYPGVSLYQYYGLDVWGQGTTVTVSS
# VL: DTVMTQSPATLSVSPGERVTLSCRASQIINTNLAWYQKRPGQAPRLLIYAASARATGIPARFSGSGSGTEFTLTISGLQSEDSAVYYCQQYKHWPPYTFGRGTKLEIR
# notes: also called V2i mAb 830 A
# B2: CAP228-3D IgG1 (antibody, V domains shown)
# VH: EVQLVQSGAEVKKPGESLKISCKGFGYSFSTYWIAWVRQMPGKGLEWMGMIYPGDSDTKYSPSLQGQVTISGDKSISTAYLQWSSLKASDTAMYYCARLLNNYDSSGFLYWYLDLWGRGTLVTVSS
# VL: NFMLTQPHSVSESPGKTVTISCTRSSGSIASDYVQWYQQRPGSSPTTVIYEDNQRPSGVPDRFSGSIDSSSNSASLTISGLKTEDEADYYCQSYDMTNHNWVFGGGTKLTVL
# Target: C1080 envelope on concentrated pseudovirus particles (HIV-1 strain C1080 (clone C1080.c3 …, UniProt I6NF57, strain))
# Assay: ELISA
# Settings: one partner purified
row,Binder,binding result
1,B1,binds
2,B2,binds

# Reference: publication PMC6203816 (Nature Communications, 2018)
